# Assay results from patent US8771644B2, “Imaging probes” (Sanofi, priority 2007, dated 2014).
# How the values were obtained:
# Format in all cases: biochemical
# [1] = system: CN(C)c1ccc(/N=N/c2ccc(C(=O)NCCCC[C@H](NC(=O)[C@H](CCC(=O)NCCNc3cccc4c(S(=O)(=O)O)cccc34)NC(=O)[C@H](CC3CCCCC3)NC(=O)N3CCOCC3)C(=O)O)cc2)cc1; test: in vitro activity assay (fluorescence, substrate cleavage) with Cath B; settings: other: Cath B; measurement performed at pH 7.5; pH 7.5; 37.0 °C
# Procedure: (§1) […] The substrates were solved in DMSO and added to enzyme solution with a final concentration of 50 μM.
# (§2) Fluorescence was measured with an Tecan SAFIRE II spectrometer (excitation wavelength: 336 nm; emission wavelength: 490 nm; excitation band: 10.0 nm; emission band: 10.0 nm; amplification (manual): 90).
# [2] = system: CN(C)c1ccc2c(c1)Oc1cc(N(C)C)ccc1C21OC(=O)c2cc(C(=O)NCC[C@H](NC(=O)[C@H](CC3CCCCC3)NC(=O)N3CCOCC3)C(=O)NCCNC(=O)c3ccc(-c4c5ccc(=O)cc-5oc5cc(O)ccc45)c(C(=O)O)c3)ccc21; test: as above; settings: other: Cath B; measurement performed at pH 5.5; pH 5.5; 37.0 °C
# Procedure: as §1, §2
# [3] = system: CN(C)c1ccc(/N=N/c2ccc(C(=O)NCCCC[C@H](NC(=O)[C@H](CCC(=O)NCCNc3cccc4c(S(=O)(=O)O)cccc34)NC(=O)[C@H](CC3CCCCC3)NC(=O)N3CCOCC3)C(=O)O)cc2)cc1; test: in vitro activity assay (fluorescence, substrate cleavage) with Cath L; settings: other: Cath L; measurement performed at pH 7.5; pH 7.5; 37.0 °C
# Procedure: as §1, §2
# [4] = system: CN(C)c1ccc2c(c1)Oc1cc(N(C)C)ccc1C21OC(=O)c2cc(C(=O)NCC[C@H](NC(=O)[C@H](CC3CCCCC3)NC(=O)N3CCOCC3)C(=O)NCCNC(=O)c3ccc(-c4c5ccc(=O)cc-5oc5cc(O)ccc45)c(C(=O)O)c3)ccc21; test: as above; settings: other: Cath L; measurement performed at pH 5.5; pH 5.5; 37.0 °C
# Procedure: as §1, §2
# Chain of Cath L (Homo sapiens) (chain, as listed by the source): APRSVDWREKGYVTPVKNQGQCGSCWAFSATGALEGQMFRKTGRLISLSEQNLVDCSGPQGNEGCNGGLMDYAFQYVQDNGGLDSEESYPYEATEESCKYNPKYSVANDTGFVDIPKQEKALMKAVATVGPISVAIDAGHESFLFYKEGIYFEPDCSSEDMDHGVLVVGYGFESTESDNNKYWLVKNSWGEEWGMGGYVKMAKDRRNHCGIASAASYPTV
Substance,Km [1],Vmax [1],kcat/Km [1],Km [2],Vmax [2],kcat [2],Km [3],Vmax [3],kcat [3],kcat/Km [3],Km [4],Vmax [4],kcat [4]
Cath B (Homo sapiens),0.12 mM,0.006 µmol/min,250 M⁻¹ s⁻¹,0.88 mM,0.156 µmol/min,0.25 s⁻¹,,,,,,,
Cath L (Homo sapiens),,,,,,,8.3 mM,0.27 µmol/min,1.26 s⁻¹,152 M⁻¹ s⁻¹,7.1 mM,0.582 µmol/min,3.01 s⁻¹
